Measured values taken from publication PMC9364023, “In vitro single molecule and bulk phase studies reveal the AP-1 transcription factor cFos binds to DNA without its partner cJun” (The Journal of Biological Chemistry, 2022).
Where no end group is shown, it is not given here.

Experiments:
[1] = target: cFos bZIP region (137-193) synthetic peptide, C-terminally biotin-tagged (human); assay: Qdot blinking analysis of single molecules on DNA tightropes; Qdot 655 conjugates only; blinks counted in 50 kymographs of 60 s for each protein; dual Poisson model fitted to cJun and cFos together; HSABC buffer; monomer to dimer on DNA
[2] = target: cFos bZIP region (137-193) synthetic peptide, C-terminally biotin-tagged (human); assay: dual-colour single-molecule fluorescence imaging on DNA tightropes; biotinylated peptide conjugated to premixed equimolar streptavidin Qdot 605 and Qdot 655 (100 nM peptide, 200 nM Qdots, diluted 50-fold); bound to Lambda DNA tightropes; HSABC buffer (50 mM Tris pH 7.5, 150 mM KCl, 10 mM MgCl2); room temperature (20 C); dual-coloured spots counted among DNA-bound molecules; monomer to dimer on DNA
[3] = target: the molecule itself; assay: as above

Row | Molecule | percent dimer (fit of Qdot blinking) [1] | percent of DNA-bound entities that were dual-colored [2] | percent of DNA-bound molecules dimerized [2] | stoichiometry N [2] | stoichiometry N [3]
1 | cFos bZIP region (137-193) synthetic peptide, C-terminally biotin-tagged | 45.8% | 15% | 30% | 2 | –
2 | cJun bZIP region (252-308) synthetic peptide, C-terminally biotin-tagged (bZIP region of cJun, residues 252-308 as stated; gly-ala-pro spacer before the C-terminal biotin; In the tightrope assays the peptide was conjugated through its biotin to streptavidin-coated Qdot 655 and/or Qdot 605; It holds the bZIP domain only; source: synthetic peptide (PeptideSynthetics)) RIKAERKRMRNRIAASKCRKRKLERIARLEEKVKTLKAQNYELASTANMLREQVAQLGAP-biotin | – | – | – | – | 2
